Assay results from the supplement of paper PMC10567573.

B1: DVL3 (parent)
chain: HPDPAPFCADNPSELPPPMERTGG

Variants of: B1
Assay: protein stability index of a GFP-peptide fusion (GPS, HEK-293T) (PSI 1-6); higher = more stable
Conditions: c terminus: a fixed tail appended
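Further: lentivirally expressed fusions sorted by FACS into six bins by GFP to DsRed ratio, PSI derived from sequencing read proportions per bin multiplied by bin number.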

| Variant | protein stability index |
| --- | --- |
| HPDPVPFCADNPSELPPPMERTGG [A5V] | 3.62 |
| HPDPEPFCADNPSELPPPMERTGG [A5E] | 3.91 |
| HPDPNPFCADNPSELPPPMERTGG [A5N] | 3.93 |
| HPDPGPFCADNPSELPPPMERTGG [A5G] | 2.87 |
| HPDPMPFCADNPSELPPPMERTGG [A5M] | 1.82 |
| HPDPQPFCADNPSELPPPMERTGG [A5Q] | 3.42 |
| HPDPYPFCADNPSELPPPMERTGG [A5Y] | 3.11 |
| HPDPLPFCADNPSELPPPMERTGG [A5L] | 2.77 |
| HPDPIPFCADNPSELPPPMERTGG [A5I] | 2.77 |
| HPDPRPFCADNPSELPPPMERTGG [A5R] | 2.29 |
| HPDPDPFCADNPSELPPPMERTGG [A5D] | 3.82 |
| HPDPFPFCADNPSELPPPMERTGG [A5F] | 2.58 |
| HPDPWPFCADNPSELPPPMERTGG [A5W] | 2.41 |
| HPDPSPFCADNPSELPPPMERTGG [A5S] | 2.54 |
| HPDPCPFCADNPSELPPPMERTGG [A5C] | 2.75 |
| HPDPKPFCADNPSELPPPMERTGG [A5K] | 2.7 |
| HPDPAPFCADLPSELPPPMERTGG [N11L] | 2.59 |
| HPDPAPWCADNPSELPPPMERTGG [F7W] | 2.21 |
| HPDPAPRCADNPSELPPPMERTGG [F7R] | 5.23 |
| HPDPAPFRADNPSELPPPMERTGG [C8R] | 2.62 |
| HPDPAPFWADNPSELPPPMERTGG [C8W] | 2.74 |
| HPDPAPFEADNPSELPPPMERTGG [C8E] | 5.49 |
| HPDPAPFVADNPSELPPPMERTGG [C8V] | 2.84 |
| HPDPAPFGADNPSELPPPMERTGG [C8G] | 4.65 |

| Variant | protein stability index |
| --- | --- |
| HPDPAIFCADNPSELPPPMERTGG [P6I] | 3 |
| HPDPAYFCADNPSELPPPMERTGG [P6Y] | 2.46 |
| HPDPASFCADNPSELPPPMERTGG [P6S] | 3.14 |
| HPDPAHFCADNPSELPPPMERTGG [P6H] | 3.46 |
| HPDPAFFCADNPSELPPPMERTGG [P6F] | 2.48 |
| HPDPAWFCADNPSELPPPMERTGG [P6W] | 3.3 |
| HPDPAVFCADNPSELPPPMERTGG [P6V] | 2.73 |
| HPDPAKFCADNPSELPPPMERTGG [P6K] | 3.33 |
| HPDPAEFCADNPSELPPPMERTGG [P6E] | 4.91 |
| HPDPADFCADNPSELPPPMERTGG [P6D] | 5.21 |
| HPDPAGFCADNPSELPPPMERTGG [P6G] | 3.57 |
| HPDPARFCADNPSELPPPMERTGG [P6R] | 2.91 |
| HPDPAQFCADNPSELPPPMERTGG [P6Q] | 4.12 |
| HPDPAMFCADNPSELPPPMERTGG [P6M] | 2.83 |
| HPDPATFCADNPSELPPPMERTGG [P6T] | 3.92 |
| HPDPALFCADNPSELPPPMERTGG [P6L] | 2.83 |
| HPDPACFCADNPSELPPPMERTGG [P6C] | 3.01 |
| HPDPAAFCADNPSELPPPMERTGG [P6A] | 2.69 |
| HPDPANFCADNPSELPPPMERTGG [P6N] | 4.83 |
| HPDPAPFCADNPSELPEPMERTGG [P17E] | 3.41 |
| HPDPAPFCADNPSELPFPMERTGG [P17F] | 2.4 |
| HPDPAPFCADNPSELPAPMERTGG [P17A] | 2.73 |
| HPDPAPFCADNPSELPCPMERTGG [P17C] | 2.52 |
| HPDPAPFCADNPSELPDPMERTGG [P17D] | 2.93 |

| Variant | protein stability index |
| --- | --- |
| HPDHAPFCADNPSELPPPMERTGG [P4H] | 4.84 |
| HPDTAPFCADNPSELPPPMERTGG [P4T] | 4.9 |
| HPDGAPFCADNPSELPPPMERTGG [P4G] | 4.94 |
| HPDYAPFCADNPSELPPPMERTGG [P4Y] | 4.58 |
| HPDVAPFCADNPSELPPPMERTGG [P4V] | 5.14 |
| HPDRAPFCADNPSELPPPMERTGG [P4R] | 4.78 |
| HPDSAPFCADNPSELPPPMERTGG [P4S] | 5.24 |
| HPDWAPFCADNPSELPPPMERTGG [P4W] | 5.19 |
| HPDMAPFCADNPSELPPPMERTGG [P4M] | 5.22 |
| HPDNAPFCADNPSELPPPMERTGG [P4N] | 5.35 |
| HPDIAPFCADNPSELPPPMERTGG [P4I] | 4.99 |
| HPDDAPFCADNPSELPPPMERTGG [P4D] | 5.64 |
| HPDQAPFCADNPSELPPPMERTGG [P4Q] | 5.3 |
| HPDAAPFCADNPSELPPPMERTGG [P4A] | 4.6 |
| HPDEAPFCADNPSELPPPMERTGG [P4E] | 5.24 |
| HPDLAPFCADNPSELPPPMERTGG [P4L] | 4.8 |
| HPDCAPFCADNPSELPPPMERTGG [P4C] | 4.85 |
| HPDKAPFCADNPSELPPPMERTGG [P4K] | 5.4 |
| HPDFAPFCADNPSELPPPMERTGG [P4F] | 4.71 |
| HGDPAPFCADNPSELPPPMERTGG [P2G] | 5.4 |
| HMDPAPFCADNPSELPPPMERTGG [P2M] | 2.04 |
| HADPAPFCADNPSELPPPMERTGG [P2A] | 2.08 |
| HWDPAPFCADNPSELPPPMERTGG [P2W] | 3.03 |
| HNDPAPFCADNPSELPPPMERTGG [P2N] | 4.74 |

| Variant | protein stability index |
| --- | --- |
| HFDPAPFCADNPSELPPPMERTGG [P2F] | 4.57 |
| HEDPAPFCADNPSELPPPMERTGG [P2E] | 4.46 |
| HSDPAPFCADNPSELPPPMERTGG [P2S] | 3.51 |
| HYDPAPFCADNPSELPPPMERTGG [P2Y] | 3.84 |
| HCDPAPFCADNPSELPPPMERTGG [P2C] | 2.28 |
| HHDPAPFCADNPSELPPPMERTGG [P2H] | 3.19 |
| HLDPAPFCADNPSELPPPMERTGG [P2L] | 1.93 |
| HKDPAPFCADNPSELPPPMERTGG [P2K] | 5.1 |
| HTDPAPFCADNPSELPPPMERTGG [P2T] | 2.27 |
| HRDPAPFCADNPSELPPPMERTGG [P2R] | 4.33 |
| HQDPAPFCADNPSELPPPMERTGG [P2Q] | 1.54 |
| HDDPAPFCADNPSELPPPMERTGG [P2D] | 5.12 |
| KPDPAPFCADNPSELPPPMERTGG [H1K] | 5.2 |
| EPDPAPFCADNPSELPPPMERTGG [H1E] | 5.45 |
| MPDPAPFCADNPSELPPPMERTGG [H1M] | 4.93 |
| LPDPAPFCADNPSELPPPMERTGG [H1L] | 5.58 |
| RPDPAPFCADNPSELPPPMERTGG [H1R] | 4.98 |
| HPDPAPFCADNWSELPPPMERTGG [P12W] | 2.17 |
| HPDPAPFCADNQSELPPPMERTGG [P12Q] | 2.86 |
| HPDPAPFCADNMSELPPPMERTGG [P12M] | 3.54 |
| HPDPAPFCADNVSELPPPMERTGG [P12V] | 2.3 |
| HPDPAPFCADNNSELPPPMERTGG [P12N] | 2.42 |
